Test [1] deals with gp100 antigen presented on the surface of B16F10 (gp100+) mouse melanoma cells treated with 1 µM hgp100 peptide (human) (UniProt P40967). Description: microfluidic shear detachment of primary mouse T cells from hgp100-pulsed B16F10 monolayer.
Test [2] shares this target. Description: cell-based or functional assay.

With “T cell receptor of TCR-transgenic Thy1.1+ pmel-1 (Pmel) mouse T cells”, the percent of T cells remaining bound at 1.9 Pa in test [1] was found to be 19.4%. This sequence also came in with an IFN-γ secretion (ELISA of overnight T cell-B16F10 co-culture media) in test [2] of 2120 pg/mL.

The values above are taken from US20240269676A1.
